B1: Wnt10b.1717: shRNA, SEQ ID NO: 190 (nucleic acid)
chain: TGCTGTTGACAGTGAGCGCCTCGAATAGACTAAGATGAAATAGTGAAGCCACAGATGTATTTCATCTTAGTCTATTCGAGTTGCCTACTGCCTCGGA
B2: Pde1b.2027: shRNA, SEQ ID NO: 162 (nucleic acid)
chain: TGCTGTTGACAGTGAGCGCTGCCTCCAAGTTTCTAAGCAATAGTGAAGCCACAGATGTATTGCTTAGAAACTTGGAGGCAATGCCTACTGCCTCGGA
B3: Ctbs.796: shRNA, SEQ ID NO: 110 (nucleic acid)
chain: TGCTGTTGACAGTGAGCGCCCCACAGAGCATCTCACTAAATAGTGAAGCCACAGATGTATTTAGTGAGATGCTCTGTGGGTTGCCTACTGCCTCGGA
B4: Myo7a.618: shRNA, SEQ ID NO: 149 (nucleic acid)
chain: TGCTGTTGACAGTGAGCGCCCGCCAGTACACCAACAAGAATAGTGAAGCCACAGATGTATTCTTGTTGGTGTACTGGCGGATGCCTACTGCCTCGGA
B5: Pdgfrb.1028: shRNA, SEQ ID NO: 163 (nucleic acid)
chain: TGCTGTTGACAGTGAGCGAAACGACCATGGCGATGAGAAATAGTGAAGCCACAGATGTATTTCTCATCGCCATGGTCGTTCTGCCTACTGCCTCGGA
B6: Rbks.337: shRNA, SEQ ID NO: 172 (nucleic acid)
chain: TGCTGTTGACAGTGAGCGAAGCCTCCATAATTGTCAATAATAGTGAAGCCACAGATGTATTATTGACAATTATGGAGGCTGTGCCTACTGCCTCGGA
B7: Lima1.3235: shRNA, SEQ ID NO: 138 (nucleic acid)
chain: TGCTGTTGACAGTGAGCGAACGGACATTGTACCCAGATAATAGTGAAGCCACAGATGTATTATCTGGGTACAATGTCCGTCTGCCTACTGCCTCGGA
B8: Cdc42ep1.317: shRNA, SEQ ID NO: 103 (nucleic acid)
chain: TGCTGTTGACAGTGAGCGCCTAGCAGTTGTAAGCAATCAATAGTGAAGCCACAGATGTATTGATTGCTTACAACTGCTAGTTGCCTACTGCCTCGGA
B9: Rgs6.896: shRNA, SEQ ID NO: 173 (nucleic acid)
chain: TGCTGTTGACAGTGAGCGCCAAGTGAAGATTGACCGGAAATAGTGAAGCCACAGATGTATTTCCGGTCAATCTTCACTTGTTGCCTACTGCCTCGGA
B10: Htatip2.575: shRNA, SEQ ID NO: 133 (nucleic acid)
chain: TGCTGTTGACAGTGAGCGACAGCAGTTTCTTATACCTACATAGTGAAGCCACAGATGTATGTAGGTATAAGAAACTGCTGGTGCCTACTGCCTCGGA
B11: Nmur1.7: shRNA, SEQ ID NO: 152 (nucleic acid)
chain: TGCTGTTGACAGTGAGCGCCTGCAATATCAGTGAGTTCAATAGTGAAGCCACAGATGTATTGAACTCACTGATATTGCAGATGCCTACTGCCTCGGA
B12: Casp1.248: shRNA, SEQ ID NO: 100 (nucleic acid)
chain: TGCTGTTGACAGTGAGCGCCAGTGAGTATAGGGACAATAATAGTGAAGCCACAGATGTATTATTGTCCCTATACTCACTGATGCCTACTGCCTCGGA
B13: Nrp1.2022: shRNA, SEQ ID NO: 154 (nucleic acid)
chain: TGCTGTTGACAGTGAGCGACACAAGGTTCATCAGGATCTATAGTGAAGCCACAGATGTATAGATCCTGATGAACCTTGTGGTGCCTACTGCCTCGGA

What was measured:
[1] = test system: tet-on competent MLL/AF9+Nras AML; assay: Pooled negative selection RNAi screening (deep sequencing); type: cell-based, mouse; details: deep sequencing reads, On Dox compared to T0
Description: (§1) In addition to the analysis of single shRNAs for inhibitory effects in vitro and in vivo, the combination of tet-on competent cancer models and tet-regulatable shRNA expression vectors allowing for monitoring shRNA expression through fluorescent and other reporter genes (e.g. TRMPV and derivates) facilitates pooled shRNA negative selection screening (FIG. 37). In such approaches a pool of over 1,000 shRNAs are retrovirally transduced into tet-on competent cancer models (here MLL/AF9+Nras AML) and selected for shRNA containing cells by either drug selection (e.g. G418) or fluorescence-activated cell sorting (FACS). Selected cell populations harboring a library of shRNAs then can be cultured in the absence or presence of doxycyline (off dox and on dox, respectively) or injected into syngeneic recipient mice that are either treated with doxycyline or left untreated.
(§2) The representation of each shRNA within the pool can be effectively assessed by deep sequencing of shRNA cassettes in a given cell population. For this, genomic DNA is extracted from leukemia cells containing the shRNA pool, and the shRNA guide or passenger strand (21-22 target gene specific nucleotides of the shRNA) by PCR using primers specific for common sequences flanking the gene specific part of the shRNA (e.g. miR30 19 nt loop and miR30 common 3′ sequence). The primers also contain 5′-adapters required for deep sequencing (e.g. for Illumina/Solexa sequencing primers are p5+mir3: 5′-[…]-3′ (SEQ ID NO: 215) and p7+Loop: 5′-[…]-3′ (SEQ ID NO: 216)). Deep sequencing is subsequently performed using a primer binding the flanking nucleotide sequence next to the target gene specific part of the shRNA (for Illumina/Solexa platforms the primer is mir30EcoR1Seq: 5′-TAGCCCCTTGAATTCCGA GGCAGTAGGCA-3′ (SEQ ID NO: 217)).
(§3) The use of shRNA vectors that allow for monitoring of shRNA expression through fluorescent and other reporter genes (e.g. TRMPV) in combination with tet-on competent mouse models facilitates the isolation of pure shRNA expressing cell populations (e.g. by FACS, for TRMPV by sorting of Venus/dsRed double positive cells (FIG. 38). This selection of shRNA expressing cells prior to DNA isolation strongly reduces the background caused by cell populations with insufficient shRNA induction, which are predicted to contain genomic representation of the whole shRNA library without shRNA specific shifts in representation. The final readout is based on the comparison of shRNA representation (i.e. deep sequencing read numbers) before the assay (t0) or from cell populations left without doxycycline treatment (off dox) to those where shRNA were induced and cells subsequently sorted for shRNA expressing cells (on dox). shRNA with inhibitory effects are predicted to loose representation (show less reads) on dox compared to t0 and off dox.
(§4) This pooled is RNAi screening strategy can be applied to rapidly survey inhibitory effects of large pools of shRNAs (˜1000 at a time) in different tet-on competent cancer models and normal control cells (FIG. 39). For example, a pool of 1166 shRNAs targeting 836 predominantly druggable genes associated with MLL fusion proteins in human leukemia and mouse models of MLL/AF9-induced AML (MLL cure library) was analyzed in pooled negative selection screening in tet-on competent MLL/AF9+Nras AML and immortalized murine embryonic fibroblasts (Mef) in parallel. To establish and validate this screening approach, the pool also contained 64 control shRNAs each of which have been previously analyzed for inhibitory effects in both AML cells and Mefs using the same experimental system (FIG. 40).
(§5) After pooling of 1166 experimental and 64 control shRNAs the presence of shRNAs was verified by deep sequencing of shRNAs within the plasmid vector pool (FIG. 41). […]

[2] = test system: immortalized murine embryonic fibroblasts (Mef); assay: as above; type: cell-based; details: deep sequencing reads, on dox compared to initial representation
Description: as §1, §2, §3, §4, §5

Row | Molecule | Fold depletion in AML [1] | Fold depletion in Mef [2]
1 | B1 | 15.69 Fold | 1.35 Fold
2 | B2 | 15.12 Fold | 1.31 Fold
3 | B3 | 19.44 Fold | 0.19 Fold
4 | B4 | 14.79 Fold | 4.42 Fold
5 | B5 | 16.16 Fold | 2.15 Fold
6 | B6 | 17.02 Fold | 1.07 Fold
7 | B7 | 16.44 Fold | 0.56 Fold
8 | B8 | 14.91 Fold | 1.47 Fold
9 | B9 | 14.33 Fold | 1.99 Fold
10 | B10 | 15.74 Fold | 1.08 Fold
11 | B11 | 19.45 Fold | 2.58 Fold
12 | B12 | 16.16 Fold | 3.84 Fold
13 | B13 | 13.60 Fold | 1.80 Fold

Reference: US8895526B2, “Identification of RNAI targets and use of RNAI for rational therapy of chemotherapy-resistant leukemia and other cancers” (Cold Spring Harbor Laboratory, priority 2009, dated 2014)
